The text below walks through data of paper PMC4288179, “Synergic interplay of the La motif, RRM1 and the interdomain linker of LARP6 in the recognition of collagen mRNA expands the RNA binding repertoire of the La module”.

The target in the series is T1, HsLARP6 La module (70-300) (Homo sapiens, UniProt Q9BRS8 70-300).
T1 sequence: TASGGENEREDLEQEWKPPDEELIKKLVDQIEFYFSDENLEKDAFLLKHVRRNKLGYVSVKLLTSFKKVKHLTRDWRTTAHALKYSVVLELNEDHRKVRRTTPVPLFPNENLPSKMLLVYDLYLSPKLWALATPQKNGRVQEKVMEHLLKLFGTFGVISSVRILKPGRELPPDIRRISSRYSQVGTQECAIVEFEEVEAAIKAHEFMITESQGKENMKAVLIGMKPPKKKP
The series can be described thus: ITC; ITC: 20 mM Tris pH 7.25, 100 mM KCl, 5 mM MgCl2, 1 mM DTT, 298 K; protein titrated into RNA. The following applies: protein: recombinant, tags: N-terminal His6, TEV-cleaved for initial ITC. Background: In ITC the heat of successive injections is recorded.

B1: 32 nt RNA (structured_RNA)
RNA: CAAAGAGUCUACAUGGGUCAUGUUCAGCUUUG
With B1, the Kd (stem-loop with internal bulge) was 0.125 µM.

B2: UUUUOH RNA (ssRNA)
RNA: UUUU
Regarding B2, where the note is “single strand”, the Kd came out at 6 µM.

For orientation: Kd means the constant that tells how readily two partners part at equilibrium.
